Experimental data taken from patent US20120213801.

B1: activated recombinant PKBβ (protein)
chain: KVTMNDFDYLKLLGKGTFGKVILVREKATGRYYAMKILRKEVIIAKDEVAHTVTESRVLQNTRHPFLTALKYAFQTHDRLCFVMEYANGGELFFHLSRERVFTEERARFYGAEIVSALEYLHSRDVVYRDIKLENLMLDKDGHIKITDFGLCKEGISDGATMKTFCGTPEYLAPEVLEDNDYGRAVDWWGLGVVMYEMMCGRLPFYNQDHERLFELILMEEIRFPRTLSPEAKSLLAGLLKKDPKQRLGGGPSDAKEVMEHRFFLSINWQDVVQKKLLPPFKPQVTSEVDTRYFDDEFTAQSITITPPDRYDSLGLLELDQRTHFPQFSYSASIRE

How the values were obtained:
[1] = tested on: T1, Flag-tagged Twist-1 WT from starved HEK293 cells (not phosphorylated)
T1 sequence: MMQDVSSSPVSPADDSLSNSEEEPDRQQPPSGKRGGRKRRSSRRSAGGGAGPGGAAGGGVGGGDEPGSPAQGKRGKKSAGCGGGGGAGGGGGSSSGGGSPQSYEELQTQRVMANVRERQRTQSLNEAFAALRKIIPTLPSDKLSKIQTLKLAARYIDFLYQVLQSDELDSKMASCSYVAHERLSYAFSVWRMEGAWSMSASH

[2] = molecular target: T2, GST-Twist-1 (full-length, substrate of the in vitro kinase assay)
T2 chain: T1 sequence

[3] = molecular target: T3, RERQRAQSLNEA-T121A
T3 chain: RERQRAQSLNEA

[4] = molecular target: T4, RERQRTQALNEA-S123A
T4 chain: RERQRTQALNEA

[5] = molecular target: T5, RERQRTQSLNEA-T121/5123
T5 chain: RERQRTQSLNEA

[6] = molecular target: T6, RKRRSARRSAGG-S42A
T6 chain: RKRRSARRSAGG

[7] = molecular target: T7, RKRRSSRRAAGG-S45A
T7 chain: RKRRSSRRAAGG

[8] = molecular target: T8, RKRRSSRRSAGG-S42/S45
T8 chain: RKRRSSRRSAGG

Molecule | Twist-1 S42 phosphorylation after serum stimulation (Western blot; shRNA against PKB) [1] | in vitro kinase assays followed by mass spectrometry (MS) analysis [2] | phosphorylation of synthetic peptide (in vitro kinase assay, 32P-ATP, scintillation counting); no such loss, by implication [3] | phosphorylation of synthetic peptide (in vitro kinase assay, 32P-ATP, scintillation counting); almost complete loss [4] | phosphorylation of synthetic peptide (in vitro kinase assay, 32P-ATP, scintillation counting); parent peptide, phosphorylated by implication [5] | phosphorylation of synthetic peptide (in vitro kinase assay, 32P-ATP, scintillation counting); almost complete loss [6] | phosphorylation of synthetic peptide (in vitro kinase assay, 32P-ATP, scintillation counting); no such loss, by implication [7] | phosphorylation of synthetic peptide (in vitro kinase assay, 32P-ATP, scintillation counting); parent peptide, phosphorylated by implication [8]
endogenous PKB kinase of HEK293 cells | Twist-1 S42 phosphorylation was not induced after serum stimulation of cells with a low PKB content |  |  |  |  |  |  | 
B1 |  | confirmed that PKB phosphorylates Twist-1 in vitro on two residues S42 and S123 | Only substitution of serine to alanine at positions 42 and 123 resulted in almost complete loss of phosphorylation of the corresponding peptide by PKB | Only substitution of serine to alanine at positions 42 and 123 resulted in almost complete loss of phosphorylation of the corresponding peptide by PKB | Only substitution of serine to alanine at positions 42 and 123 resulted in almost complete loss of phosphorylation of the corresponding peptide by PKB | Only substitution of serine to alanine at positions 42 and 123 resulted in almost complete loss of phosphorylation of the corresponding peptide by PKB | Only substitution of serine to alanine at positions 42 and 123 resulted in almost complete loss of phosphorylation of the corresponding peptide by PKB | Only substitution of serine to alanine at positions 42 and 123 resulted in almost complete loss of phosphorylation of the corresponding peptide by PKB
